Results: US20040115656A1

Biological target: androgen receptor (UniProt P10275)
Test: cell-based or functional assay

Sequence of UniProt P10275 (P10275 whole entry): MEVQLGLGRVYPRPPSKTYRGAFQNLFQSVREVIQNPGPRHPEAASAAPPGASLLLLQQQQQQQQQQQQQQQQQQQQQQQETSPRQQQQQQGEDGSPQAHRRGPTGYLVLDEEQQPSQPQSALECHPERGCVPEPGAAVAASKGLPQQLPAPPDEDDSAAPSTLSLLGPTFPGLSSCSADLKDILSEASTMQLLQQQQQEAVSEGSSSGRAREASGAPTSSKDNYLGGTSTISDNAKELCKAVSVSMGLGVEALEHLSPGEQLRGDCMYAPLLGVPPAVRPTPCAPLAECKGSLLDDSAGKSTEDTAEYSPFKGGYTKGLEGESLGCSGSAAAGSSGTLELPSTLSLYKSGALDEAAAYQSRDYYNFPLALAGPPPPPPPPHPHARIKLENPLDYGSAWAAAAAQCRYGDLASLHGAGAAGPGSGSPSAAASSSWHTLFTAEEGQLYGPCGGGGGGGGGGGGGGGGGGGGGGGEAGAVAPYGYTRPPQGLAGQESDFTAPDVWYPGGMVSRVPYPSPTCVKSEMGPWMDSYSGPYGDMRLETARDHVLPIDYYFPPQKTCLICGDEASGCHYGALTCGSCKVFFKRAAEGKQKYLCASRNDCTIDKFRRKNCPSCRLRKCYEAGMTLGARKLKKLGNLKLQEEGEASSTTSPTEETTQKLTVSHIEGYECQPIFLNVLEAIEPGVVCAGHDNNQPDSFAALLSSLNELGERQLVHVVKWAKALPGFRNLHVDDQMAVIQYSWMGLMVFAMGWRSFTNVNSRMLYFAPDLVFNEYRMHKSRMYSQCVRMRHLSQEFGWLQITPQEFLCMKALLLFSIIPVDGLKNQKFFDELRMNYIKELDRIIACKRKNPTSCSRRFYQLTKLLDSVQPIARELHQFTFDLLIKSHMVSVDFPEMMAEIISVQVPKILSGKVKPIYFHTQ

Substance “human androgen receptor down-regulatory-associated protein” has a luciferase activity of AFP promoter (ARE) reporter in MCF7 and G2 cells (times (relative to the control reporter)) of 2.
